Measurements reported in publication PMC13087489.

Molecular target: CsERF061 (Citrus sinensis? (blood orange), UniProt A0ACB8LNY5 1-312)
Assay: EMSA

B1: RE-mut-probe (dsDNA)
DNA 1: TGTCAAAAAAAAAAGCCACAAGGCAAATTCAAGTTG
DNA 2: CAACTTGAATTTGCCTTGTGGCTTTTTTTTTTGACA
binding result: no binding
